Laboratory results reported in the Immune Epitope Database (IEDB).

How the values were obtained:
Experiment in all cases: IEDB peptide-MHC binding, purified MHC/competitive/radioactivity; ≥ and ≤ were set here for values at or beyond the usual limits of such assays
[1] = target: HLA-A*02:01
[2] = target: HLA-A*02:02
[3] = target: HLA-A*02:03
[4] = target: HLA-A*02:06
[5] = target: HLA-A*68:02
[6] = source organism: Vaccinia virus WR
[7] = source organism: Hepacivirus hominis
[8] = source organism: Influenza A virus
[9] = source organism: Mammarenavirus choriomeningitidis

Row | Sequence | IC50 [1, 6] | IC50 [2, 6] | IC50 [3, 6] | IC50 [4, 6] | IC50 [5, 6] | other results
1 | LVIGFLFLA |  |  |  |  |  | IC50 ([1]; source organism: SARS-CoV1): 1.4 nM; IC50 ([2]; source organism: SARS-CoV1): 7.4 nM; IC50 ([3]; source organism: SARS-CoV1): 20 nM; IC50 ([4]; source organism: SARS-CoV1): 0.095 nM; IC50 ([5]; source organism: SARS-CoV1): 26 nM
2 | ILLILSCIFA | 21 nM | 448 nM | 307 nM | 492 nM | 2750 nM | 
3 | CTINVNSLAL | 1040 nM | 494 nM | 1040 nM | 216 nM | 517 nM | 
4 | LMSFTILCL |  |  |  |  |  | IC50 ([1]; source organism: SARS-CoV1): 0.14 nM; IC50 ([2]; source organism: SARS-CoV1): 0.27 nM; IC50 ([3]; source organism: SARS-CoV1): 16 nM; IC50 ([4]; source organism: SARS-CoV1): 1.8 nM; IC50 ([5]; source organism: SARS-CoV1): 709 nM
5 | VIKLVKSLV | 881 nM | 1030 nM | 126 nM | 4120 nM | 640 nM | 
6 | LMDSIFVSTM | 259 nM | 3.7 nM | 8.1 nM | 610 nM | 680 nM | 
7 | VIADYNYKL |  |  |  |  |  | IC50 ([1]; source organism: SARS-CoV1): 24 nM; IC50 ([2]; source organism: SARS-CoV1): 0.48 nM; IC50 ([3]; source organism: SARS-CoV1): 115 nM; IC50 ([4]; source organism: SARS-CoV1): 69 nM; IC50 ([5]; source organism: SARS-CoV1): 290 nM
8 | KIEDLINQLV | 286 nM | 87 nM | 71 nM | 145 nM | 1050 nM | 
9 | FTKDGKLDDT | 980 nM | 145 nM | 187 nM | 898 nM | 4080 nM | 
10 | ILSCIFAFI | 1.8 nM | 0.79 nM | 3.1 nM | 8.8 nM | 1.3 nM | 
11 | AVITETIPI | 467 nM | 324 nM | 43 nM | 6.5 nM | 60 nM | 
12 | TSISGVLWTV |  |  |  |  |  | IC50 [1, 7]: 26 nM; IC50 [2, 7]: 8.1 nM; IC50 [3, 7]: 27 nM; IC50 [4, 7]: 82 nM; IC50 [5, 7]: 2.2 nM
13 | LMIGNYFSGV | 0.27 nM | 0.13 nM | 0.093 nM | 0.13 nM | 160 nM | 
14 | MVMCGGSLYV |  |  |  |  |  | IC50 ([1]; source organism: SARS-CoV1): 14 nM; IC50 ([2]; source organism: SARS-CoV1): 15 nM; IC50 ([3]; source organism: SARS-CoV1): 10 nM; IC50 ([4]; source organism: SARS-CoV1): 13 nM; IC50 ([5]; source organism: SARS-CoV1): 6.7 nM
15 | RIYCSLFKNV | 62 nM | 913 nM | 30 nM | 7.1 nM | 549 nM | 
16 | VLVGGVLAAL |  |  |  |  |  | IC50 [1, 7]: 60 nM; IC50 [2, 7]: 11 nM; IC50 [3, 7]: 5 nM; IC50 [4, 7]: 141 nM; IC50 [5, 7]: 150 nM
17 | LVIGVAFLAV |  |  |  |  |  | IC50 ([1]; source organism: SARS-CoV1): 342 nM; IC50 ([2]; source organism: SARS-CoV1): 2710 nM; IC50 ([3]; source organism: SARS-CoV1): 22 nM; IC50 ([4]; source organism: SARS-CoV1): 2.6 nM; IC50 ([5]; source organism: SARS-CoV1): 62 nM

Row | Sequence | IC50 [1, 6] | IC50 [2, 6] | IC50 [3, 6] | IC50 [4, 6] | IC50 [5, 6] | other results
18 | FMRFFTLGSI |  |  |  |  |  | IC50 ([1]; source organism: SARS-CoV1): 105 nM; IC50 ([2]; source organism: SARS-CoV1): 24 nM; IC50 ([3]; source organism: SARS-CoV1): 0.76 nM; IC50 ([4]; source organism: SARS-CoV1): 195 nM; IC50 ([5]; source organism: SARS-CoV1): 412 nM
19 | NVMGMIGV |  |  |  |  |  | IC50 [1, 8]: 1460 nM; IC50 [2, 8]: 1980 nM; IC50 [3, 8]: 512 nM; IC50 [4, 8]: 1250 nM; IC50 [5, 8]: 98 nM
20 | IISYIILFI | 12 nM | 2.8 nM | 59 nM | 27 nM | 5.7 nM | 
21 | FICNLLLLFV |  |  |  |  |  | IC50 ([1]; source organism: SARS-CoV1): 2.1 nM; IC50 ([2]; source organism: SARS-CoV1): 2.5 nM; IC50 ([3]; source organism: SARS-CoV1): 15 nM; IC50 ([4]; source organism: SARS-CoV1): 4 nM; IC50 ([5]; source organism: SARS-CoV1): 1070 nM
22 | RVSENTGMGM | 766 nM | 839 nM | 89 nM | 146 nM | 66 nM | 
23 | AAIDRQVSV | 1470 nM | 933 nM | 19 nM | 15 nM | 1440 nM | 
24 | GMSIVCIVAA | 178 nM | 161 nM | 231 nM | 1220 nM | 1860 nM | 
25 | WVMDTLNGIM | 175 nM | 1330 nM | 194 nM | 129 nM | 101 nM | 
26 | FLAFLLFLVL |  |  |  |  |  | IC50 ([1]; source organism: SARS-CoV1): 11 nM; IC50 ([2]; source organism: SARS-CoV1): 13 nM; IC50 ([3]; source organism: SARS-CoV1): 245 nM; IC50 ([4]; source organism: SARS-CoV1): 2000 nM; IC50 ([5]; source organism: SARS-CoV1): 3810 nM
27 | LLMCAVHPEL |  |  |  |  |  | IC50 [1, 7]: 54 nM; IC50 [2, 7]: 25 nM; IC50 [3, 7]: 177 nM; IC50 [4, 7]: 442 nM; IC50 [5, 7]: 1350 nM
28 | NSLILLECFV |  |  |  |  |  | IC50 [1, 9]: 7.4 nM; IC50 [2, 9]: 1.2 nM; IC50 [3, 9]: 47 nM; IC50 [4, 9]: 4.2 nM; IC50 [5, 9]: 43 nM
29 | TLISSDGARV | 621 nM | 142 nM | 133 nM | 1220 nM | 542 nM | 
30 | DVERLQMAGV | 683 nM | 215 nM | 104 nM | 776 nM | 363 nM | 
31 | ELAYYNSCM | 4370 nM | 129 nM | 136 nM | 3580 nM | 278 nM | 
32 | LLLEWLAEV |  |  |  |  |  | IC50 ([1]; source organism: SARS-CoV1): 0.22 nM; IC50 ([2]; source organism: SARS-CoV1): 0.11 nM; IC50 ([3]; source organism: SARS-CoV1): 0.63 nM; IC50 ([4]; source organism: SARS-CoV1): 0.11 nM; IC50 ([5]; source organism: SARS-CoV1): 339 nM
33 | NVISKIYTLI | 329 nM | 0.99 nM | 33 nM | 196 nM | 67 nM | 
34 | YMLFTKFFYL |  |  |  |  |  | IC50 ([1]; source organism: SARS-CoV1): 5.1 nM; IC50 ([2]; source organism: SARS-CoV1): 48 nM; IC50 ([3]; source organism: SARS-CoV1): 46 nM; IC50 ([4]; source organism: SARS-CoV1): 20 nM; IC50 ([5]; source organism: SARS-CoV1): 9.9 nM
